Bounds are passed on as bounds.

The target of the assay is MED14-containing head+middle (H+M+14) complex (human) (UniProt O60244). Description: co-IP.

As to “RNA polymerase II (from UniProt P24928;P61218) (complex)”, the percent of input bound was < 75 % of input.

The values above are taken from PMC4259101.
